Test: 1H-15N heteronuclear NOE of Rpn13_260-407, free and SGTA_TPR-bound
Parameters: species or system human
Settings: 350 μM 15N-labelled Rpn13_260-407, 700 MHz, four second saturation transfer or control period
Method: To study the dynamic properties of free and SGTA_TPR-bound Rpn13_260-407, ^1H- ^15N heteronuclear NOE experiments were carried out with a four second saturation transfer or control period. […] The average heteronuclear NOE enhancement value for Rpn13 residues Asp 403 to Asp 407 in the free and SGTA_TPR-bound state were −0.71 and 0.48, respectively, thus indicating the transition of the Rpn13 extreme C-terminal pentapeptide region to a more ordered state upon binding to SGTA_TPR (Fig. 2C).
where Δδ1H and Δδ15N are the chemical shift differences for the same amide in its free and bound state (δfree−δbound) and for proton and nitrogen chemical shift values respectively. CSP results were mapped on to the SGTA_TPR crystal structure (PDB code 2VYI) using PyMOL. ^1H-^15N heteronuclear NOE experiments were performed with a four second saturation transfer or control period at 700 MHz. Sample concentrations of ^15N-labelled Rpn13_260-407 were maintained at 350 μM both in its free and bound state with unlabelled SGTA_TPR at a 1:1 molar ratio.

B1: Rpn13_260-407: Rpn13 C-terminal domain (residues 260–407), human, expressed in E. coli (protein)
chain: QPIQLSDLQSILATMNVPAGPAGGQQVDLASVLTPEIMAPILANADVQERLLPYLPSGESLPQTADEIQNTLTSPQFQQALGMFSAALASGQLGPLMCQFGLPAEAVEAANKGDVEAFAKAMQNNAKPEQKEGDTKDKKDEEEDMSLD
modifications: left off: thioredoxin A (TxA), N-terminal, cleaved | His6, N-terminal, cleaved
notes: Rpn13 C-terminal domain (residues 260–407), human, expressed in E. coli
average heteronuclear NOE enhancement value, residues Asp 403 to Asp 407 (SGTA_TPR-bound state, 1:1 molar ratio): 0.48 | average heteronuclear NOE enhancement value, residues Asp 403 to Asp 407 (free state): −0.71

Source: publication PMC5101480 (Scientific Reports, 2016)
